Experiment: yeast display, Sf9 membrane polyspecificity reagent, FACS + sequencing; frameworks hold sequencing errors
Method in brief: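 Nanobodies came from a synthetic yeast display library in Saccharomyces cerevisiae BJ5465, induced with galactose for 36–48 hours and stained for 1 hour at 4 °C with 10% biotinylated, detergent-solubilized Sf9 membrane reagent. Cells were enriched on streptavidin microbeads and then FACS-sorted, with low and high (top ~1%) gates set on anti-HA fluorescence for expression and streptavidin fluorescence for reagent binding. Each polyreactivity label reflects the gate a clone came from. Genes were amplified by colony PCR, sequenced by MiSeq 2 × 250 and filtered by CDR length.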

Row | Sequence | polyreactivity (PSR sort gate)
1 | QVQLVESGGGLVQAGGSLRLSCAASGSTFDYNAMGWYRQAPGKERELVAAISRGGNTYYADSVKGRFTISRDNAKNTVYLQMNSLKPEDTAVYYCAKDSYGSYRFVRKRQKAYGYWGQGTQVTVSS | low polyreactivity
2 | QVQLVESGGGLVQAGGSLRLSCAASGSTFDYYAMGRYRQAPGKERELVAAITTGGRTYYADSVKGRFTISRDNAKNTVYLQMNSLKPEDTAVYYCRERDYWGQGTQVTVSS | low polyreactivity
3 | QVQLVESGGGLVQAGGSLRLSCAASGSTFDYYAMGWYRPAPGKERELVAGINRDDGNTYYADSVKGRFTISRDNAKNTVYLQMNSLKPEDTAVYYCAADSSWQGMDYSGQGTQVTVSS | low polyreactivity
4 | QVQLVESGGGLVQAGGSLRLSCAASGSTFDYYAMGWYRQAPGKERELVAAISRTGGRTYYADSVKGRFTISRDNAKNTVYLQMNSLKPEDTAVYYCNAVTPIGGGDYDYWGEGTQVTVSS | low polyreactivity
5 | QVQLVESGGGLVQAGGSLRLSCAASGSTFDYYAMGWYRQTPGKERELVAAISWSGGSTYYADSVKGRFTISRDNAKNTVYLQMNSLKPEDTAVYYCAAATNWGGEYWGQGTQVTVSS | high polyreactivity
6 | QVQLVESGGGLVQAGGSLRLSCAASGSTFDYYDMGWYRQAPGKERELVATITSGGSTNYADSVKGRFTISRDNAKNNVYLQMNILKTEDTAVFYCASDIGGDGEGYDYWGQGTQVTVSS | low polyreactivity
7 | QVQLVESGGGLVQAGGSLRLSCAASGSTFDYYDMGWYRQSPGKERELVAAISSGGDSTYYADSVKGRFTISRDNAKNTVYLQMNSLKPEDTAVYNCAAAVYYGQSVWYYYWGQGTQVTVSS | high polyreactivity
8 | QVQLVESGGGLVQAGGSLRLSCAASGSTFDYYVMGWYRQAPGKERELVAAISHNAGSTYYADSVKGRFTISRDNAKNTVYLQMNSLKPEDTAVYYCAAPDYRNGVRYPLDYWGQGTQVTVSS | low polyreactivity
9 | QVQLVESGGGLVQAGGSLRLSCAASGSTFEDYSMGWYRQAPGKERELVAAISHIGGSTYYADSVKGRFTISRDNAKNTVYLQMNSLKPDDTAVYYCAKGGFSSKFDYWGQGTQVTVSS | low polyreactivity
10 | QVQLVESGGGLVQAGGSLRLSCAASGSTFEGNAMGWYRQAPGKERELVAAISSGGRTYYADSVKGRFTISRDNAKNTVYLQMNSLKPEDTAVYYCAAYVRRGFDWGQGTQVTVSS | high polyreactivity
11 | QVQLVESGGGLVQAGGSLRLSCAASGSTFEGNVMGWDRQATGKERELVATITGSGGRTYADSVKGRFTISRDNAKNTVYLQMNSLKPEDTAVYYCYAVSTASDEYDYWGQGTQVTVSS | low polyreactivity
12 | QVQLVESGGGLVQAGGSLRLSCAASGSTFEKNAMGWYRQAPGKEREFVAAISRRGGSTYYADSVKGRFTISRDNAKNTVYLQMNSLKPEDTAVYYCAAQQLTWYSYRGDYWGQGTQVTVSS | high polyreactivity
13 | QVQLVESGGGLVQAGGSLRLSCAASGSTFEPYAMGWYRQAPGKERELVAAISSGGSTSYADSVKGRFTISRDNAKNTVYLQMNSLKPEDTAVYYCAKRWRSYRHEDYGYWGQGTQVTVSS | low polyreactivity
14 | QVQLVESGGGLVQAGGSLRLSCAASGSTFEPYVMGWYRQAPGKERELVAAITYSGGRTYYADSVKGRFTISRDNAKNTVYLQMNSLKPEDTAVYYCAKVDRSYGYSRYWFKYGYWGQGTQVTVSS | low polyreactivity
15 | QVQLVESGGGLVQAGGSLRLSCAASGSTFEQYAMGGYRQAPGKEKELDAAISGSGTRTYYADSVKGRFTISRDNAKNTVYLQMNSLKAEDTAVYYCAARFSYPAILQAYYHWGQGTQVTVSS | high polyreactivity
16 | QVQLVESGGGLVQAGGSLRLSCAASGSTFESNAMGWYRQAPGKERELVAAISRGGNTYYADSVKGRFTISRDNAKITVYLQMNSLKPEDTAVYYCNVDRGKPVPPSEYWGQGTQVTVSS | low polyreactivity
17 | QVQLVESGGGLVQAGGSLRLSCAASGSTFESNTMGWYSQAPGKERELVAAISYSGGRTYYADSVKGRFTISRDNAKNTVYLQMNSLKPEDTAVYYCAARWSVSYQYWGQGTQVTVSS | high polyreactivity
18 | QVQLVESGGGLVQAGGSLRLSCAASGSTFETNAMGWYRQAPGTERELVAAIRWSTGNTYYADSVKGRFTISRDNAKNTVYLQMNSLKPEDTAVYYCAAYKGKHYNEGYWGQGTQVTVSS | low polyreactivity
19 | QVQLVESGGGLVQAGGSLRLSCAASGSTFEYNSMGWYRQAPGKERELVGSSTNYADSVKGRFTISRDNAKNTVYLQMNSLLPEYTAVYYCAREQGVNRNHDYWGQGTQVTVSS | low polyreactivity
20 | QVQLVESGGGLVQAGGSLRLSCAASGSTFEYYAMGWYRQAPGKERELVAAISWSGGSTYYADSVKGRFTISRDNAKNTVYLQMNSLKPEDTAVYDCATDTGTSFYGINYGYDYWGQGTQVTVSS | low polyreactivity
21 | QVQLVESGGGLVQAGGSLRLSCAASGSTFFDYAMGWYRKAPGKERELVAAISRSGDTNYADSVKGRFTISRDNAKNTVYLQMKSLKPEDTAVYYCAKDWAYRRHWVGFYYWGQGTQVTVSS | low polyreactivity
22 | QVQLVESGGGLVQAGGSLRLSCAASGSTFFEYTMGWYRRAPGKEREFVADIRGRDGSTSYADSVKGRFTISRDNAKNTVYLQMNSLKPEDTAVYYCATEYFPQYQSTGWYDYWGQGTQVTVSS | low polyreactivity
23 | QVQLVESGGGLVQAGGSLRLSCAASGSTFFGYAMGRYRQAPGKERELVAAISYRGGSTYYADSVKGRFTISRDNAKNTVYLQMNSLKPEDTAVYYCAATHGPTGSYYWGQGTQVTVSS | high polyreactivity
24 | QVQLVESGGGLVQAGGSLRLSCAASGSTFFGYDMGWYRQAPGKERELVATINSGGSTYYADSVKGRFTISRDNAKNTVYLQMNSLKPEDTAVYYCAARPSYLYPYDRTGEYDYWGQGTQVTVSS | high polyreactivity
25 | QVQLVESGGGLVQAGGSLRLSCAASGSTFFHYVMGWYRQAPGKEREVVAAIRWSGGRTRYADSVKRRFTISRDNAKITVYLQMNSLIPEDTAVFYCAAYRLSKPFYKYDYWGQGTQVTVSS | high polyreactivity
26 | QVQLVESGGGLVQAGGSLRLSCAASGSTFFHYVMGWYRQAPWKERELVAAIRWSGGRTRYADSVKGRFTISRDNAKNTVYLQMNSLKPEDTAVYYCAAYRLSKPFYKYDYWGQGTQVTVSS | high polyreactivity
27 | QVQLVESGGGLVQAGGSLRLSCAASGSTFFIWNAMGWYRQAPGKERELVAGITRGGSTNYADSVKGRFTISRDNAKNTVYLQMNSLKPEDTAVYYCAADGTVVYGYDYWGQGTQVTVSS | low polyreactivity
28 | QVQLVESGGGLVQAGGSLRLSCAASGSTFFIYAMGWYRQAPGKERELVAAISGSGGTTYYADSVKGRFTISRDNAKNTVYLQMNSLKPEDTAVYYCNKDYYPGSYDYWGQGTQVTVSS | low polyreactivity
29 | QVQLVESGGGLVQAGGSLRLSCAASGSTFFLNAMGWYRQAPGKESEFVAAISYTSTSTYYADSVKGRFTISRDNAKNTVYLQMNSLKPEDTAVYYCAVDAAGWYYTVETGDYAEDYWGQGTQVTVSS | low polyreactivity
30 | QVQLVESGGGLVQAGGSLRLSCAASGSTFFLYAMGWYRQAPGKERELVAAINYIGGTYYADSVKGRFTISRDNAKNTVYLQMNSLKPEDTAVYYCAASYVGTIAGMDYWGQGTQVTVSS | low polyreactivity

Source: the nanobody polyreactivity screen of Harvey et al. (2022)
